{
  "source": "patent US9889184B2",
  "about": "(priority 2008, dated 2018)",
  "format_in_all_cases": "cell-based",
  "key": {"Fusarium graminearum [1]": {"tested_on": "Fusarium graminearum", "conditions": "concentrations up to 18.5 uM in the absence of NaD1"}, "Fusarium graminearum [2]": {"tested_on": "Fusarium graminearum", "conditions": "F. graminearum"}, "[3]": {"tested_on": "Fusarium oxysporum f. sp. vasinfectum (Fov)", "assay": "Growth of Fov with NaD1 and proteinase inhibitors (Example 6)", "conditions": "40 h, FIG. 6", "experimental": "The inhibitory effects of defensin (NaD1) and proteinase inhibitors on the growth of Fusarium oxysporum f. sp. vasinfectum (Fov) (Australian isolate VCG01111 isolated from cotton and provided by Farming Systems Institute, DPI, Queensland, Australia) were measured essentially as described by Broekaert et al, supra 1990. Spores were isolated from sporulating cultures growing in ½ strength potato dextrose broth (PDB). The Fov culture was grown in ½ PDB for 1-2 weeks at room temperature, before spores were separated from hyphal matter by filtration through sterile tissue paper. The concentration of spores in the filtrate was measured using a hemocytometer. NaD1 and the proteinase inhibitors were prepared as described in Example 4. The conditions used for the fungal growth assay were the same as those described in Example 4. After 40h at 25° C. fungal growth was assessed by measuring optical density at 595 nm (A595)."}, "[4]": {"tested_on": "Colletotrichum graminicola", "conditions": "C. graminicola, 40 h, FIG. 7"}},
  "data": [
    {"molecule": "NaCys2: cystatin from Nicotiana alata, bacterially expressed (SEQ ID NO:4) (protein, Nicotiana alata (NaCys2)) MANLGGIREAGGSENSLEINDLARFAVDGHNKKQNALLEFRKVVNVKEQVVAGTMYYITLEATEGGKKKAYEAKVWVKPWQNFKQLEDFKLIGDAASA", "values": [
      {"measurement": "effect on hyphal growth", "setting": "Fusarium graminearum [1]", "result": "no effect on hyphal growth"},
      {"measurement": "synergy with the petunia defensin PhD1A on growth inhibition", "setting": "Fusarium graminearum [2]", "result": "synergistic effect"},
      {"measurement": "synergy with the tomato defensin Tomdef2 on growth inhibition", "setting": "Fusarium graminearum [2]", "result": "synergistic effect"},
      {"measurement": "synergy with NaD1 on growth inhibition", "setting": "[3]", "result": "Less, but significant synergy"},
      {"measurement": "synergy with NaD1 on growth inhibition", "setting": "[4]", "result": "synergistic effect"}
    ]}
  ]
}
